By Kd is commonly meant the free concentration of one partner at which half of the binding sites on the other are occupied at equilibrium, for simple one-to-one binding. Read a low Kd as tighter binding. What is called stoichiometry N is a count of units in the complex or per binding partner.

Results on 4 molecules are retold here after PMC5123071, “The Apaf-1 apoptosome induces formation of caspase-9 homo- and heterodimers with distinct activities” (Nature Communications, 2016).

B3: C9-p35/p12-CIVSM (enzyme)
chain 1: MDEADRRLLRRCRLRLVEELQVDQLWDALLSRELFRPHMIEDIQRAGSGSRRDQARQLIIDLETRGSQALPLFISCLEDTGQDMLASFLRTNRQAAKLSKPTLENLTPVVLRPEIRKPEVLRPETPRPVDIGSGGFGDVGALESLRGNADLAYILSMEPCGHCLIINNVNFCRESGLRTRTGSNIDCEKLRRRFSSLHFMVEVKGDLTAKKMVLALLELAQQDHGALDCCVVVILSHGCQASHLQFPGAVYGTDGCPVSVEKIVNIFNGTSCPSLGGKPKLFFIQACGGEQKDHGFEVASTSPEDESPGSNPEPD
chain 2: ATPFQEGLRTFDQLDAISSLPTPSDIFVSYSTFPGFVSWRDPKSGSWYVETLDDIFEQWAHSEDLQSLLLRVANAVSVKGIYKQMPCIVSMLRKKLFFKTS
notes: caspase-9, p35 (prodomain and large subunit), ends at Asp-315; caspase-9, p12 small subunit, GCFNF dimer motif replaced by the caspase-3 motif CIVSM; Homodimer by SEC-MALS; also called GCFNF→CIVSM; source: E. coli BL21(DE3)pLysS, ProC9-CIVSM fully processed during expression, purified (Ni2+-NTA, Mono-Q); copies: 2 + 2
B4: biotinylated Apaf-1 CARD-LZ-Avi (domain or fragment)
chain: not shown
modifications: biotin on the AviTag (BirA)
notes: Apaf-1 CARD (1-137); GCN4 leucine zipper, C-terminal to the CARD, followed by the AviTag and the His6-tag; Cloned into pRSF-Duet1; also called Apaf-1 CARDs; source: E. coli BL21(DE3)pLysS, purified (Ni2+-NTA, Mono-Q), biotinylated with BirA, avidin column

Data set [1] concerns the target B4. The data set can be described thus: SPR; biotinylated Apaf-1 CARD-LZ-Avi immobilised on an SA chip; C9 proteins 125 nM-2 μM as analytes; 0.01 M HEPES, 0.15 M NaCl, 3 mM EDTA, 0.05% P20; room temperature; affinities by equilibrium analysis, kinetics fitted to a two-state model. The conditions noted are these: both partners purified. Background: Surface plasmon resonance follows binding to a sensor surface in real time, without labels.

Data set [2] deals with the molecule itself. The data set can be described thus: SEC; Apaf-1 NOD (1.5 μM) and ΔPro-C9-TM (80 nM) with dATP/MgCl2 (2 mM each), 30 min 37 °C; Superose-6 in 20 mM HEPES, 50 mM NaCl, 10 mM DTT, pH 8.0; fractions immunoblotted with anti-T7. Background: In gel filtration, larger molecules generally elute earlier.
Data set [3] deals with the molecule itself. Description: SEC-MALS; recombinant C9 proteins 200 μl at 40 μM; 20 mM HEPES, 50 mM NaCl, pH 8.0; 0.5 ml/min.
The target of data set [4] is T1, recombinant full-length Apaf-1XL (UniProt O14727-1 1-1248).
T1 construct: Oligomerised into the apoptosome with bovine cytochrome c (Sigma) and dATP/MgCl2; also called oligomerized Apaf-1; Apaf-1 apoptosome; source: Hi-five or Sf21 cells, baculovirus, purified
T1 sequence (looked up): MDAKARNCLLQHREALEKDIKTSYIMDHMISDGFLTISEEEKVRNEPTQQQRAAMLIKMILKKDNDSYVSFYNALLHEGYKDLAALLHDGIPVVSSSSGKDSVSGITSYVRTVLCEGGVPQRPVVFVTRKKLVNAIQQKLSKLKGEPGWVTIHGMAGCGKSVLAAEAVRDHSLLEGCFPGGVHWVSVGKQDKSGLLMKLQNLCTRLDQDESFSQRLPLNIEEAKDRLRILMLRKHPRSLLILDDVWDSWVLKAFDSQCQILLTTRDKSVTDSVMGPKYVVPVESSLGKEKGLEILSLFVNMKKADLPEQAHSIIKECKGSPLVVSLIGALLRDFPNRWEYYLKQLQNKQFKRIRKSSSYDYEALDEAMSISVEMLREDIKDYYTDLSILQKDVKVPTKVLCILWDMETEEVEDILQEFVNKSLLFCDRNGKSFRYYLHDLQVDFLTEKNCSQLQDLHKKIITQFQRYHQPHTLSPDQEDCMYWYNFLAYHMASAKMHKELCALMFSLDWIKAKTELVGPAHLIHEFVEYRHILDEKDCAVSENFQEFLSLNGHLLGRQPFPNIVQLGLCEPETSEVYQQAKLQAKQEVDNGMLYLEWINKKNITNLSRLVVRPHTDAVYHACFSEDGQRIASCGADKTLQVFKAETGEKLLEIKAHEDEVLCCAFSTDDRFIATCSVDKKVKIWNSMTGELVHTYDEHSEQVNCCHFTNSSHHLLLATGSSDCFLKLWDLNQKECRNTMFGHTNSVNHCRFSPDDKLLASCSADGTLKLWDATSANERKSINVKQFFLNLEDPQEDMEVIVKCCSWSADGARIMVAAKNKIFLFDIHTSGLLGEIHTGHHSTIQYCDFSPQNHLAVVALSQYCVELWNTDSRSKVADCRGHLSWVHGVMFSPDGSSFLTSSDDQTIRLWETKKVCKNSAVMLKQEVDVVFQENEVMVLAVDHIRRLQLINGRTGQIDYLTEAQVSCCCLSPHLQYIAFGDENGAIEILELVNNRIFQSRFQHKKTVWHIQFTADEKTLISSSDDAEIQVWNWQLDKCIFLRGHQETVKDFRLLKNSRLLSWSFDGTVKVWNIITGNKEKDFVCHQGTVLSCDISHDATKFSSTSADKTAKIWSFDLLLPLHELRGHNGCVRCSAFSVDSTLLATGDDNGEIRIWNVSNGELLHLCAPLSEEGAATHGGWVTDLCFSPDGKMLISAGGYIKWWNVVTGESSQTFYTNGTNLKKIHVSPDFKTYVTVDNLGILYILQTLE
The data set can be described thus: SEC; Apaf-1 (300 nM) with C9 protein (200 nM) and Cc/dATP, 30 min 37 °C; Superose-6 gel filtration, pooled fractions precipitated and immunoblotted for Apaf-1 and C9. The conditions noted are these: both partners purified.

For data set [5], the target named is T2, processed two-chain caspase-9 C9-p35/p12 (UniProt P55211 1-315; P55211 316-416).
T2 construct: caspase-9, p35 (prodomain and large subunit), ends at Asp-315 (PEPD315); caspase-9, p12 small subunit with the intersubunit linker, begins after Asp-315; Purified on Ni2+-NTA; also called processed C9; cleaved C9; source: E. coli BL21(DE3)pLysS, wild-type ProC9 overexpressed and autocleaved at Asp-315, purified (Ni2+-NTA, Mono-Q)
T2 sequence (looked up) 1: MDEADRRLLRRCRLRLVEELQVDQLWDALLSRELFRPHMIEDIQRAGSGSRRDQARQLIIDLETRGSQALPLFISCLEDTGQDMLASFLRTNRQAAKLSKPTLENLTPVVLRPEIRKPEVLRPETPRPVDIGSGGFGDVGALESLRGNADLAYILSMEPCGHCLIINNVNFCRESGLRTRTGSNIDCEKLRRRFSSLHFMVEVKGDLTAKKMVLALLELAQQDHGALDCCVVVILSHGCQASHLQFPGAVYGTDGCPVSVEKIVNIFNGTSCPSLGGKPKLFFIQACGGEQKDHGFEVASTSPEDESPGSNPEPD
T2 sequence (looked up) 2: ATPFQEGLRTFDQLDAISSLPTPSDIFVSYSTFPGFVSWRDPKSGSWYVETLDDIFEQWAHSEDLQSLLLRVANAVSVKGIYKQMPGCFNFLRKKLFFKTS
Description: SPR; biotinylated Apaf-1 CARD-LZ-Avi immobilised on an SA chip; C9 proteins 125 nM-2 μM as analytes; 0.01 M HEPES, 0.15 M NaCl, 3 mM EDTA, 0.05% P20; room temperature; affinities by equilibrium analysis, kinetics fitted to a two-state model. The conditions noted are these: both partners purified.

The data set “C9-p35/p12-CIVSM” addresses B3. The description is as above. The conditions noted are these: both partners purified.

B1: C9 prodomain (domain or fragment)
chain: MDEADRRLLRRCRLRLVEELQVDQLWDALLSRELFRPHMIEDIQRAGSGSRRDQARQLIIDLETRGSQALPLFISCLEDTGQDMLASFLRTNRQAAKLSKPTLENLTPVVLRPEIRKPEVLRPETPRPVDIGSGGFG
The molecule B1 came in with a Kd in data set [1] of 41.8 µM.

B2: Apaf-1 NOD protein (127-530) (domain or fragment, UniProt O14727 127-530, looked up)
chain: VTRKKLVNAIQQKLSKLKGEPGWVTIHGMAGCGKSVLAAEAVRDHSLLEGCFPGGVHWVSVGKQDKSGLLMKLQNLCTRLDQDESFSQRLPLNIEEAKDRLRILMLRKHPRSLLILDDVWDSWVLKAFDSQCQILLTTRDKSVTDSVMGPKYVVPVESSLGKEKGLEILSLFVNMKKADLPEQAHSIIKECKGSPLVVSLIGALLRDFPNRWEYYLKQLQNKQFKRIRKSSSYDYEALDEAMSISVEMLREDIKDYYTDLSILQKDVKVPTKVLCILWDMETEEVEDILQEFVNKSLLFCDRNGKSFRYYLHDLQVDFLTEKNCSQLQDLHKKIITQFQRYHQPHTLSPDQEDCMYWYNFLAYHMASAKMHKELCALMFSLDWIKAKTELVGPAHLIHEFVEYR
notes: aa 127–530); Oligomerised with dATP/MgCl2; also called T7-NOD; NOD apoptosome complexes; source: E. coli BL21(DE3)pLysS, purified (Ni2+-NTA, Mono-Q; MBP removed with TEV protease, negative selection on Ni2+-NTA beads; not shown: MBP, N-terminal, cleaved; His6, internal (between MBP and NOD), cleaved
As to B2, the binding result in data set [2] is on record as “binds”.

Take B3: in data set [3], the “stoichiometry N” value is 2. Also, the binding result in data set [4] is “binds”.

In the case of B4, the results for the Kd (in data set [5]; in the data set with C9-p35/p12-CIVSM) were 388 nM and 68 nM, respectively.
